From patent publication US20260167728A1 (published 2026)

Columns and labels:
huCD3e = huCD3e (human, UniProt P07766 23-126); assay: Octet primary screen, crude lysate
Experimental: Stability and affinity of the individually expressed molecules in the form of crude lysate was evaluated by Octet. […] The binding of these anti-CD3 molecules (CD3.227, CD3.228, CD3.229 and CD3.230) to human and cynomolgus CD3 was measured by Octet and the Tₘ was measured by Differential Scanning Fluorimetry. All variants were paired with an anti-PSMA VHH.

human CD3 [1] = biological target: T1, human CD3 (human, UniProt P07766 23-126); assay: Octet
T1 sequence (P07766 23-126 limits assumed): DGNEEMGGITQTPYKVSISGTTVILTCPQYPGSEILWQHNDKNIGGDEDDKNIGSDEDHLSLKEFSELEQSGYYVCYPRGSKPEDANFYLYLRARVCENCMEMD

huCD3e-mFc [2] = biological target: T2, huCD3e-mFc (human, UniProt P07766 23-126); assay: Pool 3 screen
T2 construct: not shown: mFc, not described
T2 sequence (P07766 23-126): as the sequence (P07766 23-126 limits assumed) above

huCD3e-mFc [3] = biological target: T2, huCD3e-mFc; assay: Pool 3 screen, R2
huCD3e-mFc [4] = biological target: T2, huCD3e-mFc; assay: Pool 3 screen, R3
human CD3 [5] = biological target: T1, human CD3; assay: method not stated
human EGFR = biological target: T3, human EGFR (human, UniProt P00533 25-645, limits assumed); assay: BLI, room temperature
T3 construct: on HT-29 cells in the cytotoxicity assay; also called epidermal growth factor receptor
Experimental: Each construct was expressed in small-scale and purified. Thermal stability was determined by Differential Scanning Fluorimetry. Melting temperature (Tₘ) determined by Differential Scanning Fluorimetry experiments described herein were performed either in duplicate or triplicate using GloMelt™ dye and QuantStudio5™. GloMelt™ dye undergoes fluorescence enhancement upon binding to hydrophobic regions of denatured proteins. Therefore, the dye can be used to detect protein unfolding or measure thermal stability. GloMelt™ dye is optimized for detection in the SYBR® Green channel of qPCR instruments. The Differential Scanning Fluorimetry experiments were performed in 96-well plates with 10 μg protein/reaction (equal to 0.5 mg/mL final protein concentration), reaction buffer, and GloMelt™ 10× dye according to manufacturer's instructions. Fluorescence of 96-well plates was read and melt curve plots were generated in the QuantStudio5™ qPCR system. Binding affinity was analyzed with bio-layer interferometry at room temperature with human EGFR as the antigen.

Sequence of huCD3e (P07766 23-126): as the sequence (P07766 23-126 limits assumed) above

| Binder | Kd (huCD3e) [nM] | Kd (human CD3 [1]) [nM] | Kd (huCD3e-mFc [2]) [nM] | Kd (huCD3e-mFc [3]) [nM] | Kd (huCD3e-mFc [4]) [nM] | Kd (human CD3 [5]) [nM] | Kd (human EGFR) [nM] |
| --- | --- | --- | --- | --- | --- | --- | --- |
| AC3471 (CD3.23, WT) (bispecific antibody, V domains shown, Pool 2 format (remarks)) VH: EVQLLESGGGIVQPGGSLKLSCAASGFTFNTYAMNWVRQAPGKGLEWVARIRSKYNNYATYYADSVKDRFTISRDDSKNTVYLQMNNLKTEDTAVYYCVRHENFGNSYVSWFAHWGQGTLVTVSS VL: ELVVTQEPSLTVSPGGTVTLTCRSSNGAVTSSNYANWVQQKPGQAPRGLIGGTNKRAPGTPARFSGSLLGGKAALTLSGVQPEDEAVYYCALWYPNLWVFGGGTKLTVL | 13.5 | – | – | – | – | – | – |
| AC3682 (CD3.251) (bispecific antibody, V domains shown, Pool 2 format (remarks)) VH: EVQLVESGGGIVQPGGSLRLSCAASGFTFNTYAMNWVRQAPGKGLEWVGRIRSKRNNYATTYADSVKDRFTISRDDSKNTVYLQMNSLKTEDTAVYYCVRHENFGNSYVSWFAHWGQGTLVTVSS VL: ELVVTQEPSLTVSPGGTVTLTCRSSNGAVTSSNYANWVQQKPGQAPRGLIGGTNKRAPGTPARFSGSLLGGKAALTLSGVQPEDEAVYYCALWYPNLWVFGGGTKLTVL | 32.8 | – | – | – | – | – | – |
| AC3768 (CD3.23 control) (scFv, V domains shown, Pool 3 format (remarks)) VH: EVQLLESGGGIVQPGGSLKLSCAASGFTFNTYAMNWVRQAPGKGLEWVARIRSKYNNYATYYADSVKDRFTISRDDSKNTVYLQMNNLKTEDTAVYYCVRHENFGNSYVSWFAHWGQGTLVTVSS VL: ELVVTQEPSLTVSPGGTVTLTCRSSNGAVTSSNYANWVQQKPGQAPRGLIGGTNKRAPGTPARFSGSLLGGKAALTLSGVQPEDEAVYYCALWYPNLWVFGGGTKLTVL | – | 4.67 | 4.67 | 8 | 5.6 | – | – |
| AC3796 (CD3.292) (scFv, V domains shown, Pool 3 format (remarks)) VH: EVQLVESGGGIVQPGGSLRLSCAASGFTFSTYAMNWVRQAPGKGLEWVGRIRTKRNNYATYYADSVKGRFTISRDDSKNTVYLQMNSLKTEDTAVYYCVRHENFGNSYVSWFAHWGQGTLVTVSS VL: ELVVTQEPSLTVSPGGTVTLTCRSSNGAVTSSNYANWVQQKPGQAPRGLIGGTNKRAPGTPARFSGSLLGGKAALTLSGVQPEDEAVYYCALWYPNLWVFGGGTKLTVL | – | 3.89 | 3.89 | 4.1 | 3 | – | – |
| AC3799 (CD3.295) (scFv, V domains shown, Pool 3 format (remarks)) VH: EVQLVESGGGIVQPGGSLRLSCAASGFTFSTYAMNWVRQAPGKGLEWVGRIRTKRNNYATYYADSVKGRFTISRDDSKNTVYLQMNSLKTEDTAVYYCVRHENFGNSYVSWFAHWGQGTLVTVSS VL: ELVVTQEPSLTVSPGGTVTLTCRSSNGAVTSSNYANWVQQKPGQAPRGLIGGTNKRAPGTPARFSGSLNGGKAALTLSGVQPEDEAVYYCALWYPNLWVFGGGTKLTVL | – | 3.11 | 3.11 | 3.7 | – | – | – |
| AC3822 (CD3.318) (scFv, V domains shown, Pool 3 format (remarks)) VH: EVQLVESGGGIVQPGGSLRLSCAASGFTFSTYAMNWVRQAPGKGLEWVGRIRTKRNDYATYYADSVKGRFTISRDDSKNTLYLQMNSLKTEDTAVYYCVRHENFGNSYVSWFAHWGQGTLVTVSS VL: ELVVTQEPSLTVSPGGTVTLTCRSSNGAVTSSNYANWVQQKPGQAPRGLIGGTNKRAPGTPARFSGSLLEGKAALTLSGVQPEDEAVYYCALWYPNLWVFGGGTKLTVL | – | 5.38 | 5.38 | 5.7 | – | – | – |
| AC2885 (EGFR.37/CD3.23 paTCE) (bispecific antibody, EGFR library format (remarks)) scFv 1: DIQMTQSPSSLSASVGDRVTITCQASQDISNYLNWYQQKPGKAPKLLIYDASNLETGVPSRFSGSGSGTDFTFTISSLQPEDIATYYCQHFDHLPLAFGQGTKVEIKGATPPETGAETESPGETTGGSAESEPPGEGQVQLQESGPGLVKPSETLSLTCTVSGGSVSSGDYYWTWIRQPPGKGLEWIGHIYYSGNTNYNPSLKSRVTISVDTSKNQFSLKLSSVTAADTAVYYCARDRVTGAFDIWGQGTLVTVSS scFv 2: ELVVTQEPSLTVSPGGTVTLTCRSSNGAVTSSNYANWVQQKPGQAPRGLIGGTNKRAPGTPARFSGSLLGGKAALTLSGVQPEDEAVYYCALWYPNLWVFGGGTKLTVLGATPPETGAETESPGETTGGSAESEPPGEGEVQLLESGGGIVQPGGSLKLSCAASGFTFNTYAMNWVRQAPGKGLEWVARIRSKYNNYATYYADSVKDRFTISRDDSKNTVYLQMNNLKTEDTAVYYCVRHENFGNSYVSWFAHWGQGTLVTVSS | – | – | 15.4 | – | – | 203 | 2.3 |
